Our source for the FITC or GFP (+), decrease in luminescence and Cy5 (+) values is patent US20180224459A1.

For test [1], the target named is HA-mSA2-BC2T-myc fusion displayed on yeast at the C-terminus of Aga2 (yeast) (UniProt P32781). The test can be described thus: flow cytometry, induced yeast displaying HA-mSA2-BC2T-myc; mean of triplicate. (In general: Flow cytometry measures light scatter and fluorescence of single cells or particles in a stream.)
Test [2] deals with BC2T-mSA2-myc displayed on E. coli as a fusion to OmpX. The test is described as follows: flow cytometry, induced E. coli displaying BC2T-mSA2-myc; mean of triplicate.
The target in test [3] is Green Fluorescent Protein (GFP), biotinylated and immobilized on streptavidin coated plates [GFP: P42212]. The test can be described thus: competition ELISA on immobilized GFP; 1:1 mixture with GFPnb-BC2T as competitor, against GFPnb-BC2T alone; BC2nb-nLuc read-out.
Test [4] addresses BC2T-mSA2-myc displayed on E. coli as a fusion to OmpX. The test can be described thus: flow cytometry, induced E. coli displaying BC2T-mSA2-myc; co-treatment with Myc-ab-FITC; mean of triplicate.
Test [5] concerns the target HA-mSA2-BC2T-myc fusion displayed on yeast at the C-terminus of Aga2 (yeast) (UniProt P32781). The test can be described thus: flow cytometry, induced yeast displaying HA-mSA2-BC2T-myc; co-treatment with Myc-ab-FITC; mean of triplicate.
Test [6] has the same target. The test can be described thus: flow cytometry, induced yeast displaying HA-mSA2-BC2T-myc; co-treatment with HA-ab-FITC; mean of triplicate.

For “BC2 nanobody-GFP fusion protein (from UniProt P42212 1-238) (VHH)”, the values for the FITC or GFP (+) in test [1] and in test [2] were 59.6% and 98.1%, respectively.
Regarding “GFP-binding nanobody-His6 fusion protein (VHH)”, in test [3], the decrease in luminescence is 50%.
Consider BC2 nanobody-Cy5 conjugate (VHH), for which the Cy5 (+) in test [4] amounted to 98.7%; in test [5], 70.9%; in test [1], 71.1%; in test [2], 98.6%; in test [6], 71.2%.
